Test results from US20180016348A1.

Assays:
Assay in all cases: cell-based or functional assay
[1] = molecular target: neuraminidase (NA) of H5N1 A/Vietnam/1194/2004 (NIBRG-14) (influenza A virus H5N1 A/Vietnam/1194/2004 (NIBRG-14))
[2] = molecular target: neuraminidase (NA) of H1N1 A/Brisbane/59/2007 (influenza A virus H1N1 A/Brisbane/59/2007)
[3] = molecular target: neuraminidase (NA) of H1N1 A/California/07/2009 (influenza A virus H1N1 A/California/07/2009)
[4] = molecular target: neuraminidase (NA) of H3N2 A/Perth/16/2009 (influenza A virus H3N2 A/Perth/16/2009)

B1: CR12042 (antibody, V domains shown)
VH: EVQLVESGAEVRKPGSSVKVSCTASGDTFSSYTITWVRQAPGQGLEWMGEIIPIFGTANYAQKFQGRVTLTADESTTTAYMDLSSLRSEDTAVYYCARGPDNHSDRYFYYGMDVWGQGTTVTVSS
VL: EIVLTQSPLSLPVTPGEPASISCRSSQSLLHSTGNNYLDWYLQKPGQSPQLLIYLGSNRASGVPDRFSGSGSGTDFTLKISRVEAEDVGVYYCMQALQTPRTFGQGTKVDIK
For B1, the IC50 of virus neutralization (VNA on MDCK cells) [1] was 5.45 mg/L, the EC50 of neuraminidase inhibition (NA-XTD assay, whole virus) [2] was 0.11 mg/L and the IC50 of virus neutralization (VNA on MDCK cells) [3] was 0.26 mg/L. For the same binder, the EC50 of neuraminidase inhibition (NA-XTD assay, whole virus) [4] was 5.01 mg/L and the IC50 of virus neutralization (VNA on MDCK cells; one experiment) [4] was greater than 100 mg/L.
